Results as given in patent US20240279845A1, “METHOD FOR PREPARING A LIBRARY OF PEPTIDES OR A PEPTIDE” (ECOLE POLYTECHNIQUE FEDERALE DE LAUSANNE (EPFL), priority 2021, published 2024).

Substrate: Cc1cc(=O)oc2cc(NC(=O)[C@H](CCCNC(=N)N)NC(=O)CNC(=O)[C@H](CCC(N)=O)NC(=O)OC(C)(C)C)ccc12
Test: Substrate KM for protease screen, FXII
Assay type: biochemical
Conditions: other: FXII
Procedure: Crude macrocyclic libraries (4 mM DMSO stocks in 384-well LDV plates were transferred into 1536-well microtiter OptiPlates via ADE. Applied buffered solutions were prepared by filtration through PTFE syringe filters (0.22 μm) and assays were initiated by addition of protease (4.41 μl/well) in appropriate buffer (see list below) supplemented with bovine serum albumin (BSA; 0.1% w/v) and dispensed using a CERTUS automated liquid handler. Plates were incubated for 10 min at ambient temperature before fluorogenic substrate in appropriate buffer (4.5 μl) was added using a CERTUS automated liquid handler. Plates were centrifugated (800 g, 2 min) and fluorescence intensity was measured using a PHERAstar plate reader (excitation 384 nm, emission 440 nm) in time increments of 150 s over 15 min. Slopes of fluorescence increase (m) were calculated with Microsoft Excel (vers. 16.56). Negative controls were prepared without macrocycle. An average of 12 negative controls was used to calculate residual activities using Equation I below: […]
where [S]0 is the initial substrate concentration and KM is the Michaelis-Menten constant^12 for the enzyme and substrate.

B1: FXII (Homo sapiens) (protein)
chain: VVGGLVALRGAHPYIAALYWGHSFCAGSLIAPCWVLTAAHCLQDRPAPEDLTVVLGQERRNHSCEPCQTLAVRSYRLHEAFSPVSYQHDLALLRLQEDADGSCALLSPYVQPVCLPSGAARPSETTLCQVAGWGHQFEGAEEYASFLQEAQVPFLSLERCSAPDVHGSSILPGMLCAGFLEGGTDACQGDSGGPLVCEDQAAERRLTLQGIISWGSGCGDRNKPGVYTDVAYYLAWIREHTVS
- Km: 260 ± 40 µM
